Assay results published in paper doi:10.1101/725622 (bioRxiv, 2019).

Target: V2R-bound βarr1 in HEK-293 cells (V2R: Homo sapiens; βarr1: Rattus …, UniProt P30518;P29066)
Test: co-IP

binding result: binds
B1: Ib30 (HA-tagged intrabody version of Fab30) (scFv, V domains shown)
VH: EVQLVESGGGLVQPGGSLRLSCAASGFNVYSSSIHWVRQAPGKGLEWVASISSYYGYTYYADSVKGRFTISADTSKNTAYLQMNSLRAEDTAVYYCARSRQFWYSGLDYWGQGTLVTVSS
VL: DIQMTQSPSSLSASVGDRVTITCRASQSVSSAVAWYQQKPGKAPKLLIYSASSLYSGVPSRFSGSRSGTDFTLTISSLQPEDFATYYCQQYKYVPVTFGQGTKVEIK
